Results as given in US20200157212A1 (Pfizer, published 2020).
Positions count from the first letter of the chain named.

T1: Human ROBO2 overexpressed on HEK293 cells (human, UniProt Q9HCK4 22-1378)
T1 construct: also called ROBO2 cells; native ROBO2
T1 sequence: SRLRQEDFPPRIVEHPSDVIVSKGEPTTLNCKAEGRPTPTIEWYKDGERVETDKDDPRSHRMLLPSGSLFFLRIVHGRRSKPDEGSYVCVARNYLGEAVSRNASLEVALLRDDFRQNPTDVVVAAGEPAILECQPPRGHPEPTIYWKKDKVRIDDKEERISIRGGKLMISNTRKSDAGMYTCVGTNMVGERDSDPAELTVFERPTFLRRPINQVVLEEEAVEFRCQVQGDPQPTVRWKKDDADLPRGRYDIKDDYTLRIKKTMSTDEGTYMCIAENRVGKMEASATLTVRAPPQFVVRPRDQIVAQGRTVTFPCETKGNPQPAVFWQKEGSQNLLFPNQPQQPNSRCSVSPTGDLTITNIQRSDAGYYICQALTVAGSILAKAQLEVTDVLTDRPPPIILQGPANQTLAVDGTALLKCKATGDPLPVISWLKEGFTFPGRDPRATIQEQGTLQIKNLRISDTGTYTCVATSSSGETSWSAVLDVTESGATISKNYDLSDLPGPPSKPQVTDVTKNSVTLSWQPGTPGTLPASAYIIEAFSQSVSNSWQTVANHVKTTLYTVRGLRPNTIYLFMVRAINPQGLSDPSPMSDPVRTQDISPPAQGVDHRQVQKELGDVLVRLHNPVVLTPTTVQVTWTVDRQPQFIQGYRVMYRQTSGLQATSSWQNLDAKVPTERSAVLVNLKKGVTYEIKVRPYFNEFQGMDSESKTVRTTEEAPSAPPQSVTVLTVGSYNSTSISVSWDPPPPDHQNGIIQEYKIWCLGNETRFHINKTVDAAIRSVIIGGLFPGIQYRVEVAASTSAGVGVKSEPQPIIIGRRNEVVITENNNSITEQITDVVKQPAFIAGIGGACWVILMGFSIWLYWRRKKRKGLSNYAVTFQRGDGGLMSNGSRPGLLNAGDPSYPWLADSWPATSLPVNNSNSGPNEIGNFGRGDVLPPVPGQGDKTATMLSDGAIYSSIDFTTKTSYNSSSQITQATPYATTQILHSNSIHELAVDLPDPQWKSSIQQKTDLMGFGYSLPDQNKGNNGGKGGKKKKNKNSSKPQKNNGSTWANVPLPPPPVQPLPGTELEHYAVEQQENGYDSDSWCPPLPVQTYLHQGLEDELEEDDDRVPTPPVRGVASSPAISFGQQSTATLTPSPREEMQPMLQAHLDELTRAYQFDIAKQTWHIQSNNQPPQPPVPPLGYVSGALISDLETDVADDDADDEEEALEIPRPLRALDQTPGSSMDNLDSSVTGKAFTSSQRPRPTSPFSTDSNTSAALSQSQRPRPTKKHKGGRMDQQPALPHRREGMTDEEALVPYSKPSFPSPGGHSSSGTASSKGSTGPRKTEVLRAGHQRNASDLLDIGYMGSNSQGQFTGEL

B1: 93H2 (antibody, human IgG1, kappa, V domains shown)
VH: EVQLVQSGAEVKKPGASVKVSCKASGYTFTGYYMHWVRQAPGQGLEWMGWINPNSGATNFPQKFQGRVTMTRDTSITTAYMDLSRLRSDDTAVYYCARESGDDAFDIWGQGTMVTVSS
VL: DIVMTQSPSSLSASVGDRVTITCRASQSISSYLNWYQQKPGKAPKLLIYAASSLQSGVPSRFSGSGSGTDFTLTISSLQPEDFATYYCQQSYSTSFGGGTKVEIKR
notes: also called parental 93H2; 93H2 mAb
B2: Abcs25 (antibody, human IgG1, kappa, V domains shown)
VH: B1 VH with N54K, S55D, A57D, N59E
VL: DIVMTQSPSSLSASVGDRVTITCRASQSISSYLNWYQQKPGKAPKLLIYAASSLQSGVPSRFSGSGSGTDFTLTISSLQPEDFATYYCQQSVGLSFGGGTKVEIKR
notes: chain-shuffled IgG
B3: Abcs35 (antibody, human IgG1, kappa)
heavy: EVQLVQSGAEVKKPGASVKVSCKASGYTFTGYYMHWVRQAPGQGLEWMGWINPKNGDTEFPQKFQGRVTMTRDTSITTAYMDLSRLRSDDTAVYYCARESGDDAFDIWGQGTMVTVSSASTKGPSVFPLAPSSKSTSGGTAALGCLVKDYFPEPVTVSWNSGALTSGVHTFPAVLQSSGLYSLSSVVTVPSSSLGTQTYICNVNHKPSNTKVDKKVEPKSCDKTHTCPPCPAPEAAGAPSVFLFPPKPKDTLMISRTPEVTCVVVDVSHEDPEVKFNWYVDGVEVHNAKTKPREEQYNSTYRVVSVLTVLHQDWLNGKEYKCKVSNKALPAPIEKTISKAKGQPREPQVYTLPPSREEMTKNQVSLTCLVKGFYPSDIAVEWESNGQPENNYKTTPPVLDSDGSFFLYSKLTVDKSRWQQGNVFSCSVMHEALHNHYTQKSLSLSPGK
light: DIVMTQSPSSLSASVGDRVTITCRASQSISSYLNWYQQKPGKAPKLLIYAASSLQSGVPSRFSGSGSGTDFTLTISSLQPEDFATYYCQQSVGLFFGGGTKVEIKRTVAAPSVFIFPPSDEQLKSGTASVVCLLNNFYPREAKVQWKVDNALQSGNSQESVTEQDSKDSTYSLSSTLTLSKADYEKHKVYACEVTHQGLSSPVTKSFNRGEC
notes: fully human IgG1; VH of Ab96 with VL of Ab123

Biological target: T1, Human ROBO2 overexpressed on HEK293 …
Experiment: flow cytometry, HEK293 cells, average of n = 5
Protocol: (§1) Binding of the antibodies was detected using a secondary fluorochrome conjugated anti-human IgG F(ab′)₂ antibody and samples were analyzed on a Fortessa cytometer (BD Biosciences). The fold ROBO2 selectivity was calculated as the geometric mean fluorescence intensity (Geo MFI) with ROBO2 cells/Geo MFI with ROBO1 cells. A fold change higher than 3 was considered to be ROBO2 specific (Table 2, Fold Selectivity). Some affinity matured clones had increased ROBO1 reactivity, for example Abcs 55, CTI-R2-10 and CTIR2-13.
(§2) Based upon several criteria, Abcs25 and Abcs35 were selected for further characterization. Using flow cytometry, improvement in the binding EC₅₀ to human ROBO2 relative to the parental 93H2 was evaluated. Starting at 6.7 nM, 11-point, 3-fold dilution series were made for each antibody and used to stain HEK293 overexpressing human ROBO2 as described above for the ROBO2 fold selectivity (Example 2). […] In addition to measuring improved binding to human ROBO2, it was important to ensure that high affinity binding to both cynomolgus monkey ROBO2 and rat ROBO2 was maintained. Using HEK293 cells overexpressing either cynomolgus monkey ROBO2 or rat ROBO2, the relative dose-dependent binding of 93H2, Abcs25 and Abcs35 was evaluated as described above. High affinity binding to both cynomolgus monkey and rat ROBO2 was maintained in Abcs25 and Abcs35 (Table 4). […] Briefly, Abcs35 was immobilized to 300 resonance units (RU) on a CM5 chip. Association of ROBO2 Ig1-Ig2-His (ROBO2) was measured over 5 minutes and dissociation was followed for a period of 10 minutes.

EC50	Binder
133 pM	B1
68 pM	B2

Binder	EC50
B3	82 pM

Biological target: T1, Human ROBO2 overexpressed on HEK293 …
Experiment: flow cytometry, HEK293 cells overexpressing human ROBO2
Protocol: as §1, §2

EC50	Binder
133 pM	B1
56 pM	B2

Binder	EC50
B3	55 pM
